Key:
[1] = target: CXCR4 (Fusin), human (human) (UniProt P61073); assay: Scatchard analysis of 125I-12G5 binding; RD cells
[2] = target: CXCR4 (Fusin), human (human) (UniProt P61073); assay: flow cytometry, MT-2 cells
[3] = target: HA-tagged CXCR4 (HA-tagged Fusin) on CHO-K1 cells (influenza; human) (UniProt P61073); assay: Scatchard analysis of 125I-12G5 binding; CHO cells expressing HA-tagged Fusin
[4] = target: CXCR4 (Fusin), human (human) (UniProt P61073); assay: flow cytometry, RD/CD4 cells
[5] = target: CXCR4 (Fusin), human (human) (UniProt P61073); assay: cell-based or functional assay
[6] = target: CXCR4 (Fusin), human (human) (UniProt P61073); assay: flow cytometry, MOLT-4 cells
[7] = target: CXCR4 (Fusin), human (human) (UniProt P61073); assay: FACS, 10 µg/ml 12G5, Nalm6 cells chronically infected by HIV-2/vcp; loss of surface Fusin or blocking of the epitope not told apart
[8] = target: CXCR4 (Fusin), human (human) (UniProt P61073); assay: flow cytometry, H9 cells
[9] = target: CXCR4 (Fusin), human (human) (UniProt P61073); assay: Scatchard analysis of 125I-12G5 surface binding at 4 C; RD or BC7 cells (endogenous CXCR4)
[10] = target: CXCR4 (Fusin), human (human) (UniProt P61073); assay: flow cytometry, Sup T1 cells
[11] = target: CXCR4 (Fusin), human (human) (UniProt P61073); assay: FACS, 10 µg/ml 12G5, BC7 cells chronically infected by HIV-2/vcp; loss of surface Fusin or blocking of the epitope not told apart
[12] = target: CXCR4 (Fusin), human (human) (UniProt P61073); assay: flow cytometry, Daudi/CD4 cells
[13] = target: CXCR4 (Fusin), human (human) (UniProt P61073); assay: flow cytometry, C8166 cells
[14] = target: HA-tagged CXCR4 (HA-tagged Fusin) on CHO-K1 cells (influenza; human) (UniProt P61073); assay: Scatchard analysis of 125I-12G5 surface binding at 4 C; CHO cells expressing HA-tagged Fusin
[15] = target: CXCR4 (Fusin), human (human) (UniProt P61073); assay: FACS, 10 µg/ml 12G5, Daudi cells chronically infected by HIV-2/vcp; loss of surface Fusin or blocking of the epitope not told apart
[16] = target: CXCR4 (Fusin), human (human) (UniProt P61073); assay: flow cytometry, macrophages cultured 5 days, average of 3 batches
[17] = target: CXCR4 (Fusin), human (human) (UniProt P61073); assay: FACS, 10 µg/ml 12G5, Sup-T1 cells infected by HIV-2/vcp
[18] = target: CXCR4 (Fusin), human (human) (UniProt P61073); assay: flow cytometry, HeLa/CD4 cells
[19] = target: CXCR4 (Fusin), human (human) (UniProt P61073); assay: Scatchard analysis of 125I-12G5 binding; BC7 cells
[20] = target: CXCR4 (Fusin), human (human) (UniProt P61073); assay: flow cytometry, PBMC cultured 5 days, average of 10 batches

Q: How did the antibody molecules bound per cell (antibody molecules per cell) [1] turn out when MAb 12G5 (antibody) was run?
A: 400000

Q: What about the percentage of cells expressing CXCR4 by 12G5 staining [2] of the same substance?
A: 99%

Q: And the antibody molecules bound per cell (antibody molecules per cell) [3]?
A: 1e+06

Q: What about the percentage of cells expressing CXCR4 by 12G5 staining [4] of the same substance?
A: 93.3%

Q: And the antibody concentration required to inhibit HIV-2/vcp infection of CD4-negative BC7, Nalm6 and Daudi cells (RT activity) [5]?
A: 5 to 20 µg/mL

Q: What about the antibody concentration that inhibited CP-MAC infection of Sup-T1 cells (RT activity) [5] of the same substance?
A: 1 µg/mL

Q: What about the percentage of cells expressing CXCR4 by 12G5 staining [6] of the same substance?
A: 89.5%

Q: What about the percent reduction of 12G5 binding on HIV-2/vcp-infected against uninfected cells [7] of the same substance?
A: 87%

Q: And the percentage of cells expressing CXCR4 by 12G5 staining [8]?
A: 51.4%

Q: What about the Kd [9] of the same substance?
A: 1 to 5 nM

Q: And the percentage of cells expressing CXCR4 by 12G5 staining [10]?
A: 81.5%

Q: What about the percent reduction of 12G5 binding on HIV-2/vcp-infected against uninfected cells [11] of the same substance?
A: 98%

Q: What about the percentage of cells expressing CXCR4 by 12G5 staining [12] of the same substance?
A: 88.4%

Q: What about the percentage of cells expressing CXCR4 by 12G5 staining [13] of the same substance?
A: 72%

Q: What about the Kd [14] of the same substance?
A: 1 to 5 nM

Q: And the percent reduction of 12G5 binding on HIV-2/vcp-infected against uninfected cells [15]?
A: 79%

Q: And the percentage of cells expressing CXCR4 by 12G5 staining [16]?
A: 5.2%

Q: What about the percent reduction of 12G5 binding on HIV-2/vcp-infected against uninfected cells [17] of the same substance?
A: 75%

Q: What about the percentage of cells expressing CXCR4 by 12G5 staining [18] of the same substance?
A: 35.5%

Q: What about the antibody molecules bound per cell (antibody molecules per cell) [19] of the same substance?
A: 50000

Q: And the percentage of cells expressing CXCR4 by 12G5 staining [20]?
A: 27.8%

From patent USRE39057
